# Assay results taken from the supplement of paper PMC12636428.
# System: Saccharomyces cerevisiae
# Assay: transcriptional activation domain activity (GFP:mCherry ratio, weighted mean of sorted bins, harmonized to initial dataset scale) (arbitrary fluorescence ratio units); higher = stronger transcriptional activation
# Details: beta-estradiol 1 µM; induction time 4 h
# Description: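 53-aa protein tiles (fungal proteins plus yeast TF control tiles) fused C-terminally to a DBD-estrogen-binding domain-mCherry synthetic TF, integrated in S. cerevisiae (URA3 locus) with a GFP reporter. Cells were induced with 1 uM beta-estradiol for 4 h at 30 C, FACS-sorted into 8 bins by GFP:mCherry ratio and barcodes sequenced. Activity is the read-weighted mean bin fluorescence (GFP:mCherry), averaged over barcodes (median 12); tiles under 50 reads were discarded. New active-learning values were harmonized by linear fit onto the scale of the initial (Hummel et al.) dataset. The assay saturates at low and high signal.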
sequence,measurement,value
EEDEETSHEVRSKVYKLVKKSDGNQEWNDMGVETGSRRVLLRNSSTGKIVINF,transcriptional activation domain activity,25400
EEDLWTMTNLFVSPVARSLPCTSLLLCLCSLLVYLLASLTFPYLAFFLVFILF,transcriptional activation domain activity,53000
EEDNHSGDDNEDDHDSSGVDDDHGGGGDEDDGDGGEGDGGDVMQLYFIHNIIL,transcriptional activation domain activity,37400
EEDSKVSVDVDRPAKRGRGRPPKPKDPNAPPPKPKSGRGRGRPPKAKPVEVAG,transcriptional activation domain activity,39800
EEEAELAKPAKRPRESDATERDASTGDEVSKKKSKKLKAENGAPVAAPAGTSG,transcriptional activation domain activity,39300
EEEAEPKPAASAPAVAPAADEEGDDQGGDDAAKKKKKKKKGKKDEDAEPAPAA,transcriptional activation domain activity,35300
EEEAPEDNSGPRQGAKPAKRAHARARAPKCSGPTNAKVNGKGRARRSGRPAKK,transcriptional activation domain activity,24900
EEEAVVSAATDEAVKEEGRQVDAGSADAGGEAAAPRKKIRKRSKAKPTPEQKL,transcriptional activation domain activity,21200
EEEDGEEDYGNRLFVIASDKLQEEQLLIDVPPGNILSSNLLQVLKEILKTRKK,transcriptional activation domain activity,26100
EEEDGQSEPDSARAPRKAKSKTRAATDGEDESEARSKPKASRKGRRKVEASDA,transcriptional activation domain activity,24000
EEEDRHRHSRHRSKRSRSRTYSEERHRSRTRDSARRSKTRTKSPDERPPASED,transcriptional activation domain activity,40900
EEEEDAETPAQESEEEKAASEPSSPPVVQQIPRKKRLGRPPKNRPPDWNAVEP,transcriptional activation domain activity,37600
EEEEEEEGGETKKKRRRAASAAAKGRKGGRKSTASEEDEVVGGEESENRASKK,transcriptional activation domain activity,25400
EEEEEEERPAKRQKKKLAAEEDEEEGEGEGEEEEEEEERPAKRQKKKPAAEDE,transcriptional activation domain activity,26900
EEEEPSDEGEGEELDENGDVVMADVSQKSTKSKKEEPAQRYIGSVEVLSKLNL,transcriptional activation domain activity,< 6570
EEEEQAKTSPAKSESKKEKKDKKKKRSADEIESGPEGTPKVAKKIKADSGAAV,transcriptional activation domain activity,42700
EEEERKQNEKRERAEERRKEKLEEEKEKREKDRKETEKKGGKGKGEQGKGKEK,transcriptional activation domain activity,17200
EEEESAAAAKKMAAVKTRKARAGSPKTKSARKATSTRPTSKTKGGAKAKRAAA,transcriptional activation domain activity,20900
EEEGAVDEDEEEEDEEDPEERRKRELRERMAKMSGGMGMAGMFGGGMPMPGAA,transcriptional activation domain activity,58900
EEEGDEDVSGSEGSSRRKGRQRNEEEDDRSAGRRSHRLKDKSRSSTRNRRGSD,transcriptional activation domain activity,13600
EEEGNSRRKRRHRDDRDSRERDERGRDRDRERRRHRRDSSRSRDASEEERGHK,transcriptional activation domain activity,13400
EEEKPKEEKPKEEKPEEEKPEEQKPEEEKPKEKPEEQKPEAPAPTPAPEPAPE,transcriptional activation domain activity,23200
EEEPATKKQKTDDAAATTNGDAKPKGKPGRPKKAESEKKSPAKKRDPKKAATA,transcriptional activation domain activity,33700
EEEQPKKKSARKKKNAEDEDEDWDAKPKPKAKPKAKAAKKKAADGEEAGDAEK,transcriptional activation domain activity,26200
EEERGEERREGEERVEQGEEGAGGEGDEEGRSAEHGAGGELAERRGEAGDAEV,transcriptional activation domain activity,22900
EEESQAKKTTAAASSTKDLDPKGGTSGKEKKENEGTLTKRGKSGRRKVRKSVL,transcriptional activation domain activity,17800
EEEVEEKKAKKEKKSKEDKEDKKAKKDKKSKKDKSKDADEDVERTNGHSTPAA,transcriptional activation domain activity,26100
EEEYEEEEEEEYEEEEDEEEDEDEEEGGEGEEEDEVKAQRGRRAATAPARARR,transcriptional activation domain activity,28000
EEGAATDGTADANGKPKKAPRKRKSQAGATTEDGQAPKRRKKKSTDAAGGAAA,transcriptional activation domain activity,31300
EEGASQRANQRGKGEEGASQTANQRGKGEEGNQRRKGRKGAKGGRGRKGAKGG,transcriptional activation domain activity,28500
EEGDMDVDEEEGTPTKKRKLSKEEKKALKKEKKKAAKDAAAAVSDYWIVCDQS,transcriptional activation domain activity,45200
EEGEGPREEGGEEAHEQRDEGRHEEREERKEERREEPVRAAVPVRAAEPAPVV,transcriptional activation domain activity,23000
EEGERKGEGGKEKWERDAVGNGGRGRQGGEQEEEREEGAGGRGKGGGGRSRGK,transcriptional activation domain activity,45900
EEGGKEKEMREVERLSADERKLWGEALRLGRTGYSESAMIWVHVLALRVFVET,transcriptional activation domain activity,37700
EEKAAGRSAASGGAEGEGKKRKAEGGEGAAGEEKKEKKKGRTYRQREPLAAGG,transcriptional activation domain activity,54900
EEKAPFDIPLDEFFTELEKHSNVSQFNTLDVSEGNQVINESASTNTSSALNCQ,transcriptional activation domain activity,103000
EEKDTKGGPATTSKAVVKGSKSAADKKKLVKGDAKGKVPENGKRDKSEEKDEK,transcriptional activation domain activity,21800
EEKKEDDWQVLDGKEKAAGGAGEGDAAEGAEGGATTEGEKKDDAGGAPAGEGA,transcriptional activation domain activity,< 6570
EELWTDVDLYNAQFFFIKLLLHFNDPIYGPNTHELLIVMLGQKGGLYPLWQLL,transcriptional activation domain activity,59700
EEPKAEEAAPAAEAPAAEAPAAETPAAEPAAEQPATEEAKPAESAATETKKED,transcriptional activation domain activity,12500
EEPKAEEAKAEEAAKEEPKAEESKAEEPKAEEPKAEEPKAEEEPKAEEAAKEE,transcriptional activation domain activity,7200
EEPVPKKRGRGRPPKNPAAKAKAAAAAAAAKKAERLPKVRVHKAHTPLRENIH,transcriptional activation domain activity,< 6570
EEQEQDAASKAQEGSKDAPAPKSTENKNEKDAAPNDSSPSKFTKKHKAKKPSK,transcriptional activation domain activity,24700
EEREEEKEEEKEEKEQEKKKEEETRRRIRSRKRRGARRRETMRKTSQRGNRKK,transcriptional activation domain activity,25200
EERRRGRRRRRKGGGEGGRGRKREKEREERERKGEKKEGERKGKGEEKGREKK,transcriptional activation domain activity,20300
EESAEEKQEEEDSADAKKQKTNGDAEEIEEAGENDEEKAEESTSKKKGRPAKN,transcriptional activation domain activity,25100
EESGGESGGAADKNARVLSTALELALIVLDTCVELDGGRSLSLEHTALLLAAG,transcriptional activation domain activity,69300
EESLGAGMAKLNLDSATPSSHKSEPIFIAIDCEAYEEGAHAVTEVGVATLDTR,transcriptional activation domain activity,56000
EESLKHHEGINMVWRKFQSIFRIIGGIIYYEPIYRAFVRHVLHHLHLDNVLWV,transcriptional activation domain activity,64600
EETKAEEPKATEAATTSTAPAAATEATTAATAETTTEEAKPATNGSTAAADAA,transcriptional activation domain activity,23200
EETKEDESSSSPADKENEKPKANTSAKQAKPRGEKKEGAASKGKGGRKQANGT,transcriptional activation domain activity,33200
EETKPAESAKETKPVANRPAQKKPEKRKKEEQEGQEVVEKETSKKRAKKDKKS,transcriptional activation domain activity,39200
EETPVTEAPKAVEESKPVEEVKSEQKEGAAETAKDEPAQETATERSTESTPAS,transcriptional activation domain activity,34900
EETVTAEPAAVEEKDGGDDAMAIDTEEPKKKSKKDKKDKKRKAAAETTTATGT,transcriptional activation domain activity,40600
EEVKPVMAAETKPEEKKASEEAKPEEKSAETSTDKSSGVNRNAVAAAASAATS,transcriptional activation domain activity,32400
EFEVDSIDELVLILKESEQSDMLRRIGYCRKRMMSLLRLLVTKVDVVKTITKR,transcriptional activation domain activity,38100
EFFVLWVVQAIIGSRLEMYWAVLMICVLRCNQSYVSNACREVWLSWIIHGWVQ,transcriptional activation domain activity,61500
EFILHTMPVVAIKDTHAWNGNTPVELGLLGFWNLIVVWLKLLIPWRFFRLWAL,transcriptional activation domain activity,63800
EFNDIERSVYEIVRKRFIARINSFAAAGQLEKSYTNIFVMLLRLRQLTGHILT,transcriptional activation domain activity,48200
EFPAPPARPPPSHTAPPAPPPPPPPPPPPAAGGGVPPPPPPPPPPATGGAPAP,transcriptional activation domain activity,30300
EFVQVAAKPVAKKEESSDEDSDDESEDEKPAAKKAAAPVKVCSGFPYANIALI,transcriptional activation domain activity,32200
EFVRTSHGRLPAGKRLVKGGYEEDGTPLYHGMAIHEGIKVPGKISHRLYVLQS,transcriptional activation domain activity,43700
EFYLQIPFRVCMGNGRRRDRVLRDMRRAKRYSDAIEAMKRIVWPIVSFRLLLP,transcriptional activation domain activity,63600
EGAAAPAPAAAEKKEEPKKAETPKAEAPKAEAPKETSSRADAAKPAAAPKAAA,transcriptional activation domain activity,39400
EGAADGRDEGEKSKVQKVGKACVYCQRSHMTCDESRPCKRCVSRKIADLCHDR,transcriptional activation domain activity,29900
EGAASGTEEAPKPKKKKKQQPRKSKPRIDAASGTEAEPNAATESEAPAAAGAA,transcriptional activation domain activity,16600
EGADVVVEGNERRKKGESVWEKNLRKGLYGVALDYVLEQASSPIIVLTVLTAL,transcriptional activation domain activity,60900
EGAQDCGESESEGANESEEESEEENVFVVGKILDKRTNGKRKQVEYLVRCESQ,transcriptional activation domain activity,39600
EGDDEAPVQPKGRPRKSKAAAAESADEEPRPKAVRSRPSRARKSKPVASDSDV,transcriptional activation domain activity,< 6570
EGDRKGRGRGRGRDDRGPRDRNREREDRDEKNDKKRAREEGNDEKPAKNADSK,transcriptional activation domain activity,54500
EGDSDEEGDEDMYQQVDMNDVMDGVLEGMDNMGEERLNRGRARLKIHTGGPGK,transcriptional activation domain activity,37300
